The record followed here is publication PMC7209288.

One experiment addresses human C5. The experiment is described as follows: SPR; fit not_stated; antibody as IgG; antigen as monomer; on the surface: not_stated; avidity not_told. As to conditions: pH 7.4; second pH 6.0. For orientation: SPR reads the build-up and loss of mass on a sensor chip optically.
For experiment [1], the target named is Complement component C5 (human, wild type) (UniProt P01031). The experiment is described as follows: SPR (Biacore). As to conditions: for t1/2 ratio pH7.4/pH6.0: pH 6.0-7.4, not stated (pH 7.4 and pH 6.0 compared); for KD / T1/2 (half-life of the complex): pH 7.4, 25 °C, not stated for this experiment (the 37 °C screen used 150 mM NaCl), not stated explicitly for the 25 °C runs, pH 7.4 (the 37 °C screen used HBS-EP: 10 mM Hepes).
Chain of UniProt P01031 (P01031 whole entry): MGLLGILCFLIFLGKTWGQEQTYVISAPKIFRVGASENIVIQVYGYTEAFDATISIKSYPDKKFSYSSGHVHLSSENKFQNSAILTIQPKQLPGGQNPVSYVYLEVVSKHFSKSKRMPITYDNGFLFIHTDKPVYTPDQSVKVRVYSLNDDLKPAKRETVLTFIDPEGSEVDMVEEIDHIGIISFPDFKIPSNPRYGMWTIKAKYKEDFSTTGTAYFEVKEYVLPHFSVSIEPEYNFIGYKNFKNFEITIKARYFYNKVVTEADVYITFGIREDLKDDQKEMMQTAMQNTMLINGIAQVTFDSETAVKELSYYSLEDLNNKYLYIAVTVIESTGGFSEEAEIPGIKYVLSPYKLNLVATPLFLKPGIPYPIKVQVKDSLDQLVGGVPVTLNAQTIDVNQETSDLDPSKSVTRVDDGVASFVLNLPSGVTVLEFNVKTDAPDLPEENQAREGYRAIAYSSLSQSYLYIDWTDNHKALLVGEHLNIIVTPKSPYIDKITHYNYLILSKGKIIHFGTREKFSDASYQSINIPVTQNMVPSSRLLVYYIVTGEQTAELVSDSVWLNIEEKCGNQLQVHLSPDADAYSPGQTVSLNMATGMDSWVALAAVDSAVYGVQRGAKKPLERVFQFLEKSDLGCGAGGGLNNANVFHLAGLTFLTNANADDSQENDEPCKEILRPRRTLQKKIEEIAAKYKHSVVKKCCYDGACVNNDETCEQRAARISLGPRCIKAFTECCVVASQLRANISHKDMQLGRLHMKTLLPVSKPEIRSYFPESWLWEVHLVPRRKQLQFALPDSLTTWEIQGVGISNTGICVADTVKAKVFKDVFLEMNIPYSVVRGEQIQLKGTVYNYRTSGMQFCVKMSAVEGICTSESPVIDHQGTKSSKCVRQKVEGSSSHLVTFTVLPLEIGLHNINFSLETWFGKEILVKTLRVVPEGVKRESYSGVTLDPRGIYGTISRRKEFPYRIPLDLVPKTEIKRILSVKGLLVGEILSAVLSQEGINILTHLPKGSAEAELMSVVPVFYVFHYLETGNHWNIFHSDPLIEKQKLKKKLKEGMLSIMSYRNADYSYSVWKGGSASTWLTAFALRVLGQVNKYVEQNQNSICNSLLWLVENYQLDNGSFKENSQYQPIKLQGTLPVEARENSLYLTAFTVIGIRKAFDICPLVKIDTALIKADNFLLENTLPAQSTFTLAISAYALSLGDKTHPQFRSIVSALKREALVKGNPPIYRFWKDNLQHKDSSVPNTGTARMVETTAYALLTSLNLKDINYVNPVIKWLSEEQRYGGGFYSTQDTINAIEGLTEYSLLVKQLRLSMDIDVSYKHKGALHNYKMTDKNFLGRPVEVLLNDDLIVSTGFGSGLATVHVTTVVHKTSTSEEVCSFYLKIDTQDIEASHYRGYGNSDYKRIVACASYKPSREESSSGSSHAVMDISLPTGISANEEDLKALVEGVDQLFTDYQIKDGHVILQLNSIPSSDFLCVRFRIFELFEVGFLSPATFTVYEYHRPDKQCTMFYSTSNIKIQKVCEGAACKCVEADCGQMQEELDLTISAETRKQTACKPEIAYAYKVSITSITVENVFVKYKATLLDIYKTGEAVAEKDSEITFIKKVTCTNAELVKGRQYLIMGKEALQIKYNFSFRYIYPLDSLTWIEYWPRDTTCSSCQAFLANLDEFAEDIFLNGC

The target is the same in experiment [2]. The experiment is described as follows: SPR (Biacore T200, CM4 chip). The following applies: pH 7.4, 37 °C, 150 mM NaCl, HBS-EP: 10 mM Hepes.

One may read the KD as the free concentration of one partner at which half of the binding sites on the other are occupied at equilibrium, for simple one-to-one binding. A lower KD goes with higher affinity.

With In-house eculizumab, the t1/2 ratio of binding hC5 at pH7.4/pH6.0 with human C5 turned out to be 5.2.

On to “In-house eculizumab, anti-human C5 monoclonal antibody”, for which, in experiment [1], the “t1/2 ratio pH7.4/pH6.0” value is listed as “t1/2 ratio of binding hC5 at pH7.4/pH6.0 = 5.2”, the KD is 0.301 nM and the T1/2 (half-life of the complex) stood at 1.72 h.

Turning to REGN3918, the t1/2 ratio of binding hC5 at pH7.4/pH6.0 with human C5 is 3.8.

In experiment [2], “REGN3918 (pozelimab), anti-human C5 monoclonal antibody S228P (EU numbering, IgG4 hinge)” came in with a KD of 0.262 nM and a T1/2 (half-life of the complex) of 0.833 h. Besides, in experiment [1], the “t1/2 ratio pH7.4/pH6.0” value was “t1/2 ratio of binding hC5 at pH7.4/pH6.0 = 3.8”, the KD was found to be 0.189 nM and the T1/2 (half-life of the complex) is 1.03 h.
